According to paper PMC12561182, “Gal3‐CaN‐Smurf1 Complex Sequestrates FLCN‐FNIPs to Facilitate TFEB Activation in Response to Endomembrane Damage” (Advanced Science, 2025):

Target: T1, His-Flag-Smurf1 (UniProt Q9HCE7-2 1-731)
T1 construct: Smurf1; printed length 731 (HECT domain residues 374–731, catalytic C699); also called SMAD Specific E3 Ubiquitin Protein Ligase 1; source: E. coli, purified
Assay: pull-down; GST pull-down: GST fusion and His-tagged partner both purified from E. coli; 4 °C overnight, washed with PBS
Conditions: both partners purified

T1 sequence (Q9HCE7 other isoform, or with tags, fused parts or gaps): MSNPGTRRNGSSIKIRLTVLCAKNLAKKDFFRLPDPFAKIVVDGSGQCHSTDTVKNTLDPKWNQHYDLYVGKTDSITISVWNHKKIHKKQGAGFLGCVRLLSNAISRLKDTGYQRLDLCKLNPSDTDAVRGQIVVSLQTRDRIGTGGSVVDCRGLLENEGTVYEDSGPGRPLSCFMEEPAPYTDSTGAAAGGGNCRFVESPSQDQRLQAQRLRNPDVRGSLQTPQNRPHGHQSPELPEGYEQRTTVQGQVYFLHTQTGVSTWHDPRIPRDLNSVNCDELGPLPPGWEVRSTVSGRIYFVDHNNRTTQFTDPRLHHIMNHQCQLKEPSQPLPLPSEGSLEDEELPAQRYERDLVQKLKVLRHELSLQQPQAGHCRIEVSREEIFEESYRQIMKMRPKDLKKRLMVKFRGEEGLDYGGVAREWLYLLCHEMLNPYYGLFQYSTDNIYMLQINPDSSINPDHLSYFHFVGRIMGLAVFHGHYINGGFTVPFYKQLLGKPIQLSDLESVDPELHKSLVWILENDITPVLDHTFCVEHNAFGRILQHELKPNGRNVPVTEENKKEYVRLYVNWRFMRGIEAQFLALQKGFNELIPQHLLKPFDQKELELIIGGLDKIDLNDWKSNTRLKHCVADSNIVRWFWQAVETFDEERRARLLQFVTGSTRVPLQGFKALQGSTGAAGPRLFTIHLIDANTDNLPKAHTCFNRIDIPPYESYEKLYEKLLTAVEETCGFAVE

Binder	binding result
GST-TFEB (natural protein, UniProt P19484 1-476, looked up, TFEB, transcription factor EB; source: E. coli, purified) MASRIGLRMQLMREQAQQEEQRERMQQQAVMHYMQQQQQQQQQQLGGPPTPAINTPVHFQSPPPVPGEVLKVQSYLENPTSYHLQQSQHQKVREYLSETYGNKFAAHISPAQGSPKPPPAASPGVRAGHVLSSSAGNSAPNSPMAMLHIGSNPERELDDVIDNIMRLDDVLGYINPEMQMPNTLPLSSSHLNVYSSDPQVTASLVGVTSSSCPADLTQKRELTDAESRALAKERQKKDNHNLIERRRRFNINDRIKELGMLIPKANDLDVRWNKGTILKASVDYIRRMQKDLQKSRELENHSRRLEMTNKQLWLRIQELEMQARVHGLPTTSPSGMNMAELAQQVVKQELPSEEGPGEALMLGAEVPDPEPLPALPPQAPLPLPTQPPSPFHHLDFSHSLSFGGREDEGPPGYPEPLAPGHGSPFPSLSKKDLDLMLLDDSLLPLASDPLLSTMSPEASKASSRRSSFSMEEGDVL	binds
GST-FLCN (natural protein, UniProt Q8NFG4 1-579, looked up, FLCN, folliculin; source: E. coli, purified) MNAIVALCHFCELHGPRTLFCTEVLHAPLPQGDGNEDSPGQGEQAEEEEGGIQMNSRMRAHSPAEGASVESSSPGPKKSDMCEGCRSLAAGHPGYISHDKETSIKYVSHQHPSHPQLFSIVRQACVRSLSCEVCPGREGPIFFGDEQHGFVFSHTFFIKDSLARGFQRWYSIITIMMDRIYLINSWPFLLGKVRGIIDELQGKALKVFEAEQFGCPQRAQRMNTAFTPFLHQRNGNAARSLTSLTSDDNLWACLHTSFAWLLKACGSRLTEKLLEGAPTEDTLVQMEKLADLEEESESWDNSEAEEEEKAPVLPESTEGRELTQGPAESSSLSGCGSWQPRKLPVFKSLRHMRQVLGAPSFRMLAWHVLMGNQVIWKSRDVDLVQSAFEVLRTMLPVGCVRIIPYSSQYEEAYRCNFLGLSPHVQIPPHVLSSEFAVIVEVHAAARSTLHPVGCEDDQSLSKYEFVVTSGSPVAADRVGPTILNKIEAALTNQNLSVDVVDQCLVCLKEEWMNKVKVLFKFTKVDSRPKEDTQKLLSILGASEEDNVKLLKFWMTGLSKTYKSHLMSTVRSPTASESRN	binds
